Substrate in data set [1]: NC(=O)C1=CN([C@@H]2O[C@H](COP(=O)(O)OP(=O)(O)OC[C@H]3O[C@@H](n4cnc5c(N)ncnc54)[C@H](O)[C@@H]3O)[C@@H](O)[C@H]2O)C=CC1
Kind of data set: cells, lysate or membranes. Type of data set: biochemical, Saccharomyces cerevisiae. Particulars: 10 mM 2,5-hexanedione as co-substrate, sodium phosphate pH 7.0, 30 °C, cofactor varied 0.1-4 mM, enzyme enriched from E. coli extract, not homogeneous.

Substrate in data set [2]: NC(=O)C1=CN([C@@H]2O[C@H](COP(=O)(O)OP(=O)(O)OC[C@H]3O[C@@H](n4cnc5c(N)ncnc54)[C@H](OP(=O)(O)O)[C@@H]3O)[C@@H](O)[C@H]2O)C=CC1
Briefly: cells, lysate or membranes. The settings on record: 10 mM 2,5-hexanedione as co-substrate, sodium phosphate pH 7.0, 30 °C, cofactor varied 0.1-4 mM, enzyme enriched from E. coli extract, not homogeneous. The class given is biochemical, Saccharomyces cerevisiae.

Where a chain is given by its changes, count along the chain named. Numbers in names are those of the source.

B1: Gre2p (Saccharomyces cerevisiae S288C) (protein)
chain: MSVFVSGANGFIAQHIVDLLLKEDYKVIGSARSQEKAENLTEAFGNNPKFSMEVVPDISKLDAFDHVFQKHGKDIKIVLHTASPFCFDITDSERDLLIPAVNGVKGILHSIKKYAADSVERVVLTSSYAAVFDMAKENDKSLTFNEESWNPATWESCQSDPVNAYCGSKKFAEKAAWEFLEENRDSVKFELTAVNPVYVFGPQMFDKDVKKHLNTSCELVNSLMHLSPEDKIPELFGGYIDVRDVAKAHLVAFQKRETIGQRLIVSEARFTMQDVLDILNEDFPVLKGNIPVGKPGSGATHNTLGATLDNKKSKKLLGFKFRNLKETIDDTASQILKFEGRI
notes: GRE2 subcloned from p423-GPD-YOL151w into pRSET B, expressed in E. coli BL21(DE3) pLysS
One may read the Km as the concentration of substrate that gives half-maximal velocity. As usually defined, the Vmax is the rate approached at saturating substrate. For B1, in data set [1], the Km was 1450 µM and the Vmax was 0.081 µmol/min/mg. Further, in data set [2], the Km was 38 µM and the Vmax amounted to 0.288 µmol/min/mg.

B2: Gre2p (Saccharomyces cerevisiae S288C; N9E) (protein)
chain: B1 chain with N9E
notes: as for B1
With B2, the Km in data set [1] amounted to 960 µM; in data set [2], 1520 µM. The Vmax was 0.147 µmol/min/mg in data set [1] and 0.272 µmol/min/mg in data set [2].

These data come from paper PMC2871135, “Engineering Cofactor Preference of Ketone Reducing Biocatalysts: A Mutagenesis Study on a γ-Diketone Reductase from the Yeast Saccharomyces cerevisiae Serving as an Example” (International Journal of Molecular Sciences, 2010).
